{
  "source": "paper PMC5986207",
  "about": "“Structural insights into the mechanism of action of a biparatopic anti-HER2 antibody” (The Journal of Biological Chemistry, 2018)",
  "binders": {"B1": {"name": "anti-HER2 fully human mAb 39S (IgG1κ) (antibody, V domains shown)", "VH": "EVQLVESGGGLVKPGGSLRLSCAASGFTFSSYSMSWVRQAPGKGLEWVSSISSSSSYIYYADSVKGRFTISRDNAKNSLYLQMNSLRAEDTAVYYCARGGDAYNYYYFDYWGQGTLVTVSS", "VL": "DIVMTQTPLSLSVTPGQPASISCKSSQSVFFRSNNKNILAWYLQKPGQPPQLLIYWASSRESGVPDRFSGSGSGTDFTLKISRVEAEDVGVYYCQQYFGSPFTFGPGTKVDIK", "notes": "variable domain of the 39S heavy chain; as in the heavy chain of m1 (PDB 6ATT); human IgG1 heavy chain constant region (its CH1 is also in the heavy chain of PDB 6ATT); whole kappa light chain of 39S; as the light chain of m1 (PDB 6ATT); IgG1 kappa, about 148 kDa; also called 39S mAb; Antibody 39S"}},
  "target": "T1, human HER2 extracellular domain, soluble, His-tagged (Homo sapiens)",
  "T1 construct": "human HER2 (ERBB2) extracellular domain, subdomains I-IV; the electron density covers amino acids 1 to 575, leaving the last 55 residues invisible; About 86 kDa, of which 17 kDa glycan; The purified His-tagged HER2 (crystals, AUC); also called HER2 ecd; soluble HER2; source: HEK293F; purified (IMAC, Superdex200) for crystals; cell culture supernatant for SPR",
  "assay": "AUC; multisignal sedimentation velocity (MSSV), 4:1 molar loading of HER2 to antibody (5.8:1.4 μM), PBS, 20 °C, 42,000 rpm, UV 280 and 250 nm and interference, SEDPHAT",
  "settings": "both partners purified",
  "data": [
    {"binder": "B1", "values": [
      {"measurement": "stoichiometry N", "result": 2, "unit": "HER2 per 39S mAb"}
    ]}
  ]
}
